How the values were obtained:
[1] = tested on: rats, embolic stroke (thrombus injection into internal carotid artery); experiment: Embolic stroke model in rats, apyrase agent with or without r-tPA (Example 1); format: in vivo, rat; conditions: brains at 3 days
Experimental: The following groups were included in this study:
(1) control (saline treated), n=11;
(2) apyrase agent at 0.75 mg/kg, n=4;
(3) apyrase agent at 2.25 mg/kg, n=4;
(4) r-tPA (at 10 mg/kg), n=4;
(5) apyrase agent at 0.75 mg/kg plus r-tPA (10 mg/kg) and
(6) apyrase agent at 2.25 mg/kg plus r-tPA (10 mg/kg) (n=10).
All the treatments were initiated at 2 h following thrombus injection into internal carotid artery. Infarct volume and behavioral deficit were determined at day 3 after the stroke.

[2] = tested on: rats, MCAO suture model with hyperglycemia; experiment: Hyperglycemic hemorrhagic transformation in rat focal ischemia (MCAO suture model) (Example 3); format: in vivo
Experimental: Focal ischemia was produced using the MCAO (Middle Cerebral Artery Occlusion) suture model in rats. Removal of the suture at 3.5 h after MCAO signaled the beginning of the reperfusion period. Ischemia-reperfusion causes blood extravasation into infracted brain tissues, showing multiple dots, small petechiae and more confluent petechial hemorrhage.
The animals were divided into three groups: […]
Rats were sacrificed at 8 h after MCAO and brains were frozen and cut into 20 μm frozen sections with intervals at 1 mm. The sections were stained with hematoxylin-eosin (HE) or cresyl violet. The H-E staining was used for measurements of hemorrhage rate and hemorrhage volume. The cresyl violet staining was used for quantifying infarct volume and brain swelling. An MCID™ digital image analysis system (Imaging Research, Inc, St. Catherines, Ontario, Canada) was used for quantifying hemorrhage and infarct volume.

[3] = Pharmacokinetic study in rabbits, single IV bolus (serum ADPase and ATPase activities); format: in vivo, rabbit
Experimental: Pharmacokinetic studies of apyrase agent (sol CD39L3 R67G T69R) were conducted in rabbits where a single bolus was injected intravenously. At various time points (10 min to 24 h after injection), rabbits were bled by cardiac puncture and serum was prepared. Serum samples were examined for both ADPase and ATPase activities.

[4] = tested on: ADP-induced platelet aggregation; experiment: Ex vivo ADP-induced platelet aggregation in platelet-rich plasma in pigs (Example 5); design: species or system pig
[5] = tested on: dogs, coronary thrombotic occlusion; experiment: Canine coronary thrombosis and fibrinolysis model, adjunctive treatment with rtPA (Example 7); format: in vivo, dog; conditions: for decrease of infarct area compared to clopidogrel treatment: percent of left ventricular area or of area-at-risk, 24 hours of reperfusion
Experimental: Thrombotic occlusion was induced by electrical injury to a coronary artery in dogs. […] Buccal mucosa bleeding times, PT, and aPTT were measured as indices of bleeding risk. After 24 hours of reperfusion, infarct size was determined by Evan's blue and triphenyltetrazolium chloride double staining. This protocol is illustrated in FIG. 7.

[6] = tested on: Fischer 344 rats, lung isograft; experiment: Orthotopic left lung transplantation in rats after 18 hours of cold preservation, ischemia-reperfusion injury (Example 9); format: in vivo, rat; conditions: for TUNEL positive EC per 400× field: 4 hours after reperfusion, 0.66 mg/kg, N=7/group
Experimental: Fischer 344 rats (Harlan Sprague Dawley, Inc, Indianapolis, Ind.), weighing 250 to 300 grams, were subjected to orthotopic left lung transplantation.
The cuff technique (Robson, S. C., et al., Semin. Thromb. Hemost. (2005) 31:217 was used. In brief, after general anesthesia with intraperitoneal pentobarbital (65 mg/kg), mechanical ventilation, systemic heparinization (300 units), and median laparosternotomy, donor rat lungs were flushed through the main pulmonary artery with 20 mL of cold (4° C.) low-potassium dextran glucose solution at 20 cm H2O pressure. In apyrase agent-treated groups, 0.1 mg/L apyrase agent was added to the cold preservation medium. The heart-lung block was then removed with the lungs inflated at end-tidal volume. The left lung graft was isolated, prepared, and stored in low-potassium dextran glucose at 4° C. until transplantation. After 18 hours of cold preservation, recipient animals were anesthetized, intubated with a 14-gauge catheter, and underwent a left thoracotomy. The pulmonary vessels and bronchus were anastomosed with a standard cuff technique. In the sham group, the rats underwent anesthesia and thoracotomy alone. In apyrase agent-treated groups recipients received treatment intravenously through the internal jugular vein 7 minutes after graft reperfusion. In dose response studies apyrase agent was administered at a dose of either 0.07, 0.22 or 0.66 mg/kg of recipient weight. In all other studies apyrase agent was administered at a dose of 0.66 mg/kg of recipient weight. In the vehicle-treated groups, rats received a saline bolus 7 minutes after reperfusion.
The function of the left lung was assessed 4 hours after transplantation. Rats in each group were reanesthetized with pentobarbital. After tracheostomy, the animals were mechanically ventilated with 100% oxygen and a laparosternotomy was performed. The right hilar structures were clamped to isolate the left lung graft. The animals were ventilated for 5 minutes at a tidal volume of 1.5 mL, a respiratory rate of 100 breaths/min, and 1.0 cm H2O of positive end-expiratory pressure. Arterial blood gas analysis was performed with blood samples obtained from the ascending aorta. The lungs were flushed with 20 mL of cold (4° C.) saline solution, and the lung graft was excised and divided into 3 separate sections. The upper and middle sections were snap frozen. The upper section was used for enzyme-linked immunosorbent assay (ELISA) and the middle section was used for myeloperoxidase (MPO) assay. The lower section was weighed, dried at 70° C. for 48 hours, and then reweighed for calculation of the wet/dry (W/D) ratio.
Quantitative MPO activity was determined also previously described (Krawisz, J. E., et al., Gastroenterology (1984) 87:1344). Optical density was measured at 460 nm with a spectrophotometer (model PMQ II; Carl Zeiss, Oberkochen, Germany). Color development was linear from 5 minutes to 20 minutes. One unit of enzyme activity was defined as 1.0 optical density unit per minute per milligram of tissue protein at room temperature.
Proinflammatory cytokine and chemokine measurement was made on lung samples which were homogenized with T-PER Extraction Reagent (Pierce, Rockford, Ill.). Lung homogenates were centrifuged twice at 10,000 rpm at 4° C. for 5 min, and the supernatants were collected. The content of tumor necrosis factor-α (TNF-α, interleukin-1β (IL-1β) and macrophage inflammatory protein-2 (MIP-2) were determined by using ELISA kits (BioSource International, Inc, Camarillo, Calif.) in accordance with manufacturer's instructions.
For TUNEL assay, lung specimens harvested 4 hours after reperfusion were perfused with 20 mL isotonic sodium chloride solution and inflation fixed with 20 mL HistoChoice (Amresco Inc, Solon, Ohio). Specimens were cut, mounted, de-paraffinized, and then steam-treated with Dako target retrieval solution (Dako, Carpentaria, Calif.) and quenched with 3% hydrogen peroxide. […]

B1: sol CD39L3 R67G T69R (protein)
chain: EVLPPGLKYGIVLDAGSSGTRVYVYQWPAEKENNTGVVSQTFKCSVKGSGISSYGNNPQDVPRAFEECMQKVKGQVPSHLHGSTPIHLGATAGMRLLRLQNETAANEVLESIQSYFKSQPFDFRGAQIISGQEEGVYGWITANYLMGNFLEKNLWHMWVHPHGVETTGALDLGGASTQISFVAGEKMDLNTSDIMQVSLYGYVYTLYTHSFQCYGRNEAEKKFLAMLLQNSPTKNHLTNPCYPRDYSISFTMGHVFDSLCTVDQRPESYNPNDVITFEGTGDPSLCKEKVASIFDFKACHDQETCSFDGVYQPKIKGPFVAFAGFYYTASALNLSGSFSLDTFNSSTWNFCSQNWSQLPLLLPKFDEVYARSYCFSANYIYHLFVNGYKFTEETWPQIHFEKEVGNSSIAWSLGYMLSLTNQIPAESPLIRLPIEPPV
modifications: glycosylated; synthetically constructed apyrase
Question: Which “Hemorrhage #/total animals” value ([1]; apyrase agent 0.75 mg/kg (alone or plus r-tPA 10 mg/kg)) does the source give for B1 here?
Answer: Its value is 0/4.

Question: What about the “Hemorrhage #/total animals” value ([1]; apyrase agent 2.25 mg/kg (alone or plus r-tPA 10 mg/kg)) of the same molecule?
Answer: Its value is 0/4.

Question: And the “hemorrhage volume in the striatum” value ([2]; 0.375 mg/kg IV at 3 h after MCAO (30 min before reperfusion), sacrifice at 8 h)?
Answer: The value was 4.8±2.0 mm^3.

Question: What about the neurological function ([2]; 0.375 mg/kg, 4.5 hour after MCAO) of the same molecule?
Answer: The neurological function was “significantly improved neurological function”.

Question: What about the “half life in the circulation” value [3] of the same molecule?
Answer: The value was “approximately 24 h”.

Question: And the “persistence of platelet inhibition” value ([4]; 0.9-2.25 mg/kg IV)?
Answer: The value was “at least 5 h”.

Question: What about the “time after IV injection to >95% inhibition” value ([4]; 0.9-2.25 mg/kg IV) of the same molecule?
Answer: Its value is at most 5 min.

Question: What about the “inhibition of ADP-induced aggregation” value ([4]; 0.9-2.25 mg/kg single IV bolus with aspirin and heparin) of the same molecule?
Answer: The value was over 95%.

Question: And the “platelet aggregation by 24 h” value ([4]; 24 h after dosing)?
Answer: The value was “returned to normal”.

Question: What about the “buccal mucosa bleeding time” value ([5]; dog, in vivo) of the same molecule?
Answer: Its value is “no detectable change”.

Question: What about the reocclusion ([5]; dogs, apyrase agent at 1 mg/kg) of the same molecule?
Answer: The reocclusion was “completely prevented reocclusion”.

Question: What about the “decrease of infarct area compared to clopidogrel treatment” value ([5]; dogs, high dose (1 mg/kg IV)) of the same molecule?
Answer: Its value is 90%.

Question: What about the “decrease of infarct area compared to clopidogrel treatment” value ([5]; dogs, low dose (0.25 mg/kg IV)) of the same molecule?
Answer: Its value is 80%.

Question: What about the “pulmonary edema (wet to dry weight ratio)” value ([6]; 0.22 mg/kg IV, 4 hours) of the same molecule?
Answer: Its value is “trended to lower mean levels”.

Question: What about the “lung function (arterial PO2) compared to saline-treated recipients” value ([6]; 0.22 mg/kg IV, 4 hours after transplantation) of the same molecule?
Answer: Its value is “trend towards better lung function”.

Question: And the “lung graft histopathology (hematoxylin and eosin) compared to saline-treated recipients” value ([6]; 0.66 mg/kg IV 7 minutes after reperfusion)?
Answer: The value was “less apparent alveolar hemorrhage and microvascular injury”.

Question: And the “pulmonary edema (wet to dry weight ratio)” value ([6]; 0.66 mg/kg IV, 4 hours)?
Answer: The value was “significantly attenuated”.

Question: And the “lung function (arterial PO2) compared to saline-treated recipients” value ([6]; 0.66 mg/kg IV, 4 hours after transplantation)?
Answer: Its value is “significant improvement”.

Question: What about the “MPO activity in lung grafts” value ([6]; 4 hours) of the same molecule?
Answer: The value was “reduced”.

Question: And the “expression of E-selectin on endothelial cells” value ([6]; 4 hours)?
Answer: Its value is “reduced”.

Question: And the “ADP concentration in the BAL fluid relative to saline-treated recipients” value ([6]; 4 hours after engraftment)?
Answer: Its value is “significantly lower concentrations”.

Question: And the “ATP concentration in the BAL fluid relative to saline-treated recipients” value ([6]; 4 hours after engraftment)?
Answer: Its value is “significantly lower concentrations”.

Question: What about the “TUNEL positive EC per 400× field” value [6] of the same molecule?
Answer: The value was “significantly fewer apoptotic EC”.

Question: And the “TUNEL positive EC per 400× field” value ([6]; listed as apyrase)?
Answer: Its value is “three”.

Question: What about the “numbers of neutrophils recovered from the airways” value ([6]; 4 hours after transplantation) of the same molecule?
Answer: The value was “significant decrease”.

Question: And the “total cells in the BAL” value ([6]; 4 hours after transplantation)?
Answer: Its value is “significantly fewer cells”.

Question: What about the “intragraft level of TNFa (ELISA)” value ([6]; 4 hrs of reperfusion, saline about 75) of the same molecule?
Answer: Its value is “about 35 pg/mg”.

Question: And the “intragraft level of MIP-2 (ELISA)” value ([6]; 4 hrs of reperfusion, saline about 1,800)?
Answer: Its value is “about 1,300 pg/mg”.

Question: What about the “intragraft level of IL-1β (ELISA)” value ([6]; 4 hrs of reperfusion, saline about 2,200) of the same molecule?
Answer: The value was “about 1,100 pg/mg”.

From patent publication US8535662B2, “Apyrase therapy for bleeding conditions” (Apt Therapeutics, Inc., priority 2010, dated 2013)
